No end group written: not given here. *: point of attachment. Succinimide(1-Et,3-yl) = CCN1C(=O)CC(*)C1=O
T1: human CRH receptor type 2 (human, UniProt Q13324 1-411)
T1 sequence (looked up): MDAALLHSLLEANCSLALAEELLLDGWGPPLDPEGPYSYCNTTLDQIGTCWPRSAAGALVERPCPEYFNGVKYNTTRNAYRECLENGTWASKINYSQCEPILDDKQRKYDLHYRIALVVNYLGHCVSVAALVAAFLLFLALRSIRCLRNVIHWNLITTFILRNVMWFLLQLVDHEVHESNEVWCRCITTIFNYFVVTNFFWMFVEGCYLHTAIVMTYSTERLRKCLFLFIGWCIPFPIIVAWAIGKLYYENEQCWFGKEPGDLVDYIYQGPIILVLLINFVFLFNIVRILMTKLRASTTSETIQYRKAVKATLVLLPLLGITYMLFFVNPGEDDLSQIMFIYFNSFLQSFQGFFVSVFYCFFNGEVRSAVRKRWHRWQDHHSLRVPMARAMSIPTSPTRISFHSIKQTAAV


What follows are binders tested against T1, human CRH receptor type 2 (assay: cell-based or functional assay).

Row | Binder | Log DR against h-SCP, cAMP [log10 ratio] | pA50, cAMP
1 | TKFTLSLDVPTNIMNLLFNIAKAKNC(Succinimide(1-Et,3-yl))RAQAAANAHLMAQI-NH2 (N-terminus assumed; SMILES CC[C@H](C)[C@H](NC(=O)[C@H](CCC(N)=O)NC(=O)[C@H](C)NC(=O)[C@H](CCSC)NC(=O)[C@H](CC(C)C)NC(=O)[C@H](Cc1c[nH]cn1)NC(=O)[C@H](C)NC(=O)[C@H](CC(N)=O)NC(=O)[C@H](C)NC(=O)[C@H](C)NC(=O)[C@H](C)NC(=O)[C@H](CCC(N)=O)NC(=O)[C@H](C)NC(=O)[C@H](CCCNC(=N)N)NC(=O)[C@H](CSC1CC(=O)N(CC)C1=O)NC(=O)[C@H](CC(N)=O)NC(=O)[C@H](CCCCN)NC(=O)[C@H](C)NC(=O)[C@H](CCCCN)NC(=O)[C@H](C)NC(=O)[C@@H](NC(=O)[C@H](CC(N)=O)NC(=O)[C@H](Cc1ccccc1)NC(=O)[C@H](CC(C)C)NC(=O)[C@H](CC(C)C)NC(=O)[C@H](CC(N)=O)NC(=O)[C@H](CCSC)NC(=O)[C@@H](NC(=O)[C@H](CC(N)=O)NC(=O)[C@@H](NC(=O)[C@@H]1CCCN1C(=O)[C@@H](NC(=O)[C@H](CC(=O)O)NC(=O)[C@H](CC(C)C)NC(=O)[C@H](CO)NC(=O)[C@H](CC(C)C)NC(=O)[C@@H](NC(=O)[C@H](Cc1ccccc1)NC(=O)[C@H](CCCCN)NC(=O)[C@@H](N)[C@@H](C)O)[C@@H](C)O)C(C)C)[C@@H](C)O)[C@@H](C)CC)[C@@H](C)CC)C(N)=O) [Cys-variant of stresscopin peptide with N-Ethylsuccinimide (NES) reactive group, SEQ ID NO: 48] | 0.03 | 9.44 -log M
2 | TKFTLSLDVPTNIMNLLFNIAKAKNLRC(Succinimide(1-Et,3-yl))QAAANAHLMAQI-NH2 (N-terminus assumed; SMILES CC[C@H](C)[C@H](NC(=O)[C@H](CCC(N)=O)NC(=O)[C@H](C)NC(=O)[C@H](CCSC)NC(=O)[C@H](CC(C)C)NC(=O)[C@H](Cc1c[nH]cn1)NC(=O)[C@H](C)NC(=O)[C@H](CC(N)=O)NC(=O)[C@H](C)NC(=O)[C@H](C)NC(=O)[C@H](C)NC(=O)[C@H](CCC(N)=O)NC(=O)[C@H](CSC1CC(=O)N(CC)C1=O)NC(=O)[C@H](CCCNC(=N)N)NC(=O)[C@H](CC(C)C)NC(=O)[C@H](CC(N)=O)NC(=O)[C@H](CCCCN)NC(=O)[C@H](C)NC(=O)[C@H](CCCCN)NC(=O)[C@H](C)NC(=O)[C@@H](NC(=O)[C@H](CC(N)=O)NC(=O)[C@H](Cc1ccccc1)NC(=O)[C@H](CC(C)C)NC(=O)[C@H](CC(C)C)NC(=O)[C@H](CC(N)=O)NC(=O)[C@H](CCSC)NC(=O)[C@@H](NC(=O)[C@H](CC(N)=O)NC(=O)[C@@H](NC(=O)[C@@H]1CCCN1C(=O)[C@@H](NC(=O)[C@H](CC(=O)O)NC(=O)[C@H](CC(C)C)NC(=O)[C@H](CO)NC(=O)[C@H](CC(C)C)NC(=O)[C@@H](NC(=O)[C@H](Cc1ccccc1)NC(=O)[C@H](CCCCN)NC(=O)[C@@H](N)[C@@H](C)O)[C@@H](C)O)C(C)C)[C@@H](C)O)[C@@H](C)CC)[C@@H](C)CC)C(N)=O) [Cys-variant of stresscopin peptide with N-Ethylsuccinimide (NES) reactive group, SEQ ID NO: 47] | -0.03 | 9.5 -log M

Results, then the binder that gave them:

Row | Log DR against h-SCP, cAMP [log10 ratio] | pA50, cAMP | Binder
3 | 0.11 | 9.36 -log M | TKFTLSLDVPTNIMNLLFNIAKAKC(Succinimide(1-Et,3-yl))LRAQAAANAHLMAQI-NH2 (N-terminus assumed; SMILES CC[C@H](C)[C@H](NC(=O)[C@H](CCC(N)=O)NC(=O)[C@H](C)NC(=O)[C@H](CCSC)NC(=O)[C@H](CC(C)C)NC(=O)[C@H](Cc1c[nH]cn1)NC(=O)[C@H](C)NC(=O)[C@H](CC(N)=O)NC(=O)[C@H](C)NC(=O)[C@H](C)NC(=O)[C@H](C)NC(=O)[C@H](CCC(N)=O)NC(=O)[C@H](C)NC(=O)[C@H](CCCNC(=N)N)NC(=O)[C@H](CC(C)C)NC(=O)[C@H](CSC1CC(=O)N(CC)C1=O)NC(=O)[C@H](CCCCN)NC(=O)[C@H](C)NC(=O)[C@H](CCCCN)NC(=O)[C@H](C)NC(=O)[C@@H](NC(=O)[C@H](CC(N)=O)NC(=O)[C@H](Cc1ccccc1)NC(=O)[C@H](CC(C)C)NC(=O)[C@H](CC(C)C)NC(=O)[C@H](CC(N)=O)NC(=O)[C@H](CCSC)NC(=O)[C@@H](NC(=O)[C@H](CC(N)=O)NC(=O)[C@@H](NC(=O)[C@@H]1CCCN1C(=O)[C@@H](NC(=O)[C@H](CC(=O)O)NC(=O)[C@H](CC(C)C)NC(=O)[C@H](CO)NC(=O)[C@H](CC(C)C)NC(=O)[C@@H](NC(=O)[C@H](Cc1ccccc1)NC(=O)[C@H](CCCCN)NC(=O)[C@@H](N)[C@@H](C)O)[C@@H](C)O)C(C)C)[C@@H](C)O)[C@@H](C)CC)[C@@H](C)CC)C(N)=O) [Cys-variant of stresscopin peptide with N-Ethylsuccinimide (NES) reactive group, SEQ ID NO: 49]
4 | 1.9 | 7.84 -log M | TKFTLSLDVPTNIMNLLFNIAKAKNLRCQAAANAHLMAQI (NES-PEG MW80000, branched, on Cys 28; C-terminal amide) [Pegylated Cys-variant CRHR2 peptide agonist (NES-PEG MW80000 & BRANCHED), SEQ ID NO: 101]
5 | -0.01 | 9.48 -log M | TKFTLSLDVPTNIMNLLFNIAKAC(Succinimide(1-Et,3-yl))NLRAQAAANAHLMAQI-NH2 (N-terminus assumed; SMILES CC[C@H](C)[C@H](NC(=O)[C@H](CCC(N)=O)NC(=O)[C@H](C)NC(=O)[C@H](CCSC)NC(=O)[C@H](CC(C)C)NC(=O)[C@H](Cc1c[nH]cn1)NC(=O)[C@H](C)NC(=O)[C@H](CC(N)=O)NC(=O)[C@H](C)NC(=O)[C@H](C)NC(=O)[C@H](C)NC(=O)[C@H](CCC(N)=O)NC(=O)[C@H](C)NC(=O)[C@H](CCCNC(=N)N)NC(=O)[C@H](CC(C)C)NC(=O)[C@H](CC(N)=O)NC(=O)[C@H](CSC1CC(=O)N(CC)C1=O)NC(=O)[C@H](C)NC(=O)[C@H](CCCCN)NC(=O)[C@H](C)NC(=O)[C@@H](NC(=O)[C@H](CC(N)=O)NC(=O)[C@H](Cc1ccccc1)NC(=O)[C@H](CC(C)C)NC(=O)[C@H](CC(C)C)NC(=O)[C@H](CC(N)=O)NC(=O)[C@H](CCSC)NC(=O)[C@@H](NC(=O)[C@H](CC(N)=O)NC(=O)[C@@H](NC(=O)[C@@H]1CCCN1C(=O)[C@@H](NC(=O)[C@H](CC(=O)O)NC(=O)[C@H](CC(C)C)NC(=O)[C@H](CO)NC(=O)[C@H](CC(C)C)NC(=O)[C@@H](NC(=O)[C@H](Cc1ccccc1)NC(=O)[C@H](CCCCN)NC(=O)[C@@H](N)[C@@H](C)O)[C@@H](C)O)C(C)C)[C@@H](C)O)[C@@H](C)CC)[C@@H](C)CC)C(N)=O) [Cys-variant of stresscopin peptide with N-Ethylsuccinimide (NES) reactive group, SEQ ID NO: 50]
